{"source": "the nanobody polyreactivity screen of Harvey et al. (2022)"}
{"assay": "yeast display, Sf9 membrane polyspecificity reagent, FACS + sequencing; frameworks hold sequencing errors", "how_it_was_run": "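Nanobodies from a synthetic yeast display library (Saccharomyces cerevisiae BJ5465), induced 36–48 hours with galactose, were stained 1 hour at 4 °C with 10% biotinylated, detergent-solubilized Sf9 membrane reagent, enriched on streptavidin microbeads, then FACS-sorted. Anti-HA (expression) and streptavidin (reagent binding) fluorescence set low and high (top ~1%) gates. Polyreactivity labels come from the gate of origin. Genes were colony-PCR amplified, MiSeq 2 × 250 sequenced and filtered by CDR length.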"}
{"sequence": "QVQLVESGGGLVQAGGSLRLSCAASGYNFENNVMGWYRQAPGKERELVAVISWNGGRTYYADSVKGRFTISRDNAKNTVYLQMNSLKPEDTAVYYCNDQGYFWSESIVYDYWGQGTQVTVSS", "polyreactivity (PSR sort gate)": "low polyreactivity"}
{"sequence": "QVQLVESGGGLVQAGGSLRLSCAASGYNFIVYTMGWYRQAPGKERELVAAISSGGITDYADSVKGRFTISRDNAKNTVYLQMNSLKPEDTAVYYWGQGTQVTVSS", "polyreactivity (PSR sort gate)": "low polyreactivity"}
{"sequence": "QVQLVESGGGLVQAGGSLRLSCAASGYNFPLYSMGWYTQAPGKERELVADINIGGASTYYADSVKGRFTISRDNAKNTVYLQMNSLKPEDTAVYDCAKEYFDGYFPTFDYDYWGKGTQVTVSS", "polyreactivity (PSR sort gate)": "low polyreactivity"}
{"sequence": "QVQLVESGGGLVQAGGSLRLSCAASGYSLYANAKGWSRQAPGKERELVASITFGDDSTYYADSVKGRFTISRDNAKNTVDLQMNSLKPEDTAVYYCNADHKVEVEDDYCGQGTQVTVSS", "polyreactivity (PSR sort gate)": "low polyreactivity"}
{"sequence": "QVQLVESGGGLVQAGGSLRLSCAASGYTFAGNAMGWYRQAPGKERELVAAISRSGGRTYYADSVKGRFTISRDNAKNTVYLQMNSLKPEDTAVYYCAAYGYKYDYWGQGTQVTVSS", "polyreactivity (PSR sort gate)": "high polyreactivity"}
{"sequence": "QVQLVESGGGLVQAGGSLRLSCAASGYTFASYDMGWYRQAPGKERELVAAIDWSGGSTYYADSVKGRFTISRDNAKNTVYLQMNSLKPEDTAVYYCAAERPWTYGSDGMDYWGQGTQVTVSS", "polyreactivity (PSR sort gate)": "low polyreactivity"}
{"sequence": "QVQLVESGGGLVQAGGSLRLSCAASGYTFDVYAMGWYRQAPGTERELVAAISDSGGSTYYADSVKGRFTISRDNAKNTVYLQMNSLKPEDTAVYFCAAGYDYFYAIVSPSEYDYWGQGTQVTVSS", "polyreactivity (PSR sort gate)": "low polyreactivity"}
{"sequence": "QVQLVESGGGLVQAGGSLRLSCAASGYTFDYNAMGWYRQAPGKEREFVATITASGDSTYYADSVKGRFTISRDNAKNTVYLQMNSLKPEDTAVYYCATEKRDVYFTAKYDYWGQGTQVTVSS", "polyreactivity (PSR sort gate)": "low polyreactivity"}
{"sequence": "QVQLVESGGGLVQAGGSLRLSCAASGYTFESYTMGWYRQAPGKEREFVAVISSSDTSTSYADSVKGRFTISRDNAKNTFYLQMNSLKPVDTAVYYCAAYSSPYYITYYWYNYDYWGQGTQVTVSS", "polyreactivity (PSR sort gate)": "low polyreactivity"}
{"sequence": "QVQLVESGGGLVQAGGSLRLSCAASGYTFFLNVMGWYRQAAGKEWELVAAISYSGGSTNYADSVKGRFTISRDNAKNTVYLQMNSLKPEDTAVYYCAVTTYSGLYGFEYWGQGTQVTVSS", "polyreactivity (PSR sort gate)": "low polyreactivity"}
{"sequence": "QVQLVESGGGLVQAGGSLRLSCAASGYTFGFYAMGWYRQAPGKERELVAAISSSGVSTSYADSVKGRFTISRDNAKNTVYLHMNSLKPEDNAVYYCNAPSYYYAYDYWGQGTQVTVSS", "polyreactivity (PSR sort gate)": "high polyreactivity"}
{"sequence": "QVQLVESGGGLVQAGGSLRLSCAASGYTFGPYAMGWYRQAPGKERELVAAITTRGGSTYYADSVKGRFTISRDNAKNTVYLQMNSLKPEDTAVYSCAAVVNSKSIQRVVRYYYWGQGTQVTVSS", "polyreactivity (PSR sort gate)": "high polyreactivity"}
{"sequence": "QVQLVESGGGLVQAGGSLRLSCAASGYTFGSSTMGWYRPAAGTERELVAAISNRGGPYYADAVKGRFTISRDNAKNTVYLQMNSLTPEDTAVYYCAVARRCGYDYWGQGTQVTVSS", "polyreactivity (PSR sort gate)": "high polyreactivity"}
{"sequence": "QVQLVESGGGLVQAGGSLRLSCAASGYTFGSYAMGWYRQAPGTERELVAAIRGSGGSTYYADSVKGRFTISRDNAKNTVYLQLNSLKPEDTAVYYGATSVRRGGRQLYNYWGQGTQVTVSS", "polyreactivity (PSR sort gate)": "high polyreactivity"}
{"sequence": "QVQLVESGGGLVQAGGSLRLSCAASGYTFGYNARGWYRQAPGKERELVANITWRGGSTNYADSVKGRFTISRDNAKNTVYLQMNSLKPEDTAVYYCAADRPWYYGRYYYWGQGTQVTVSS", "polyreactivity (PSR sort gate)": "high polyreactivity"}
{"sequence": "QVQLVESGGGLVQAGGSLRLSCAASGYTFGYNVMGWYRQAPGKERELVAVISSGGTTYYADSVKGRFTISRDNAKNTVYLQMNSLKPEDTAVYYCNKRSAYKYRTHYGYYYWGQGTQVTVSS", "polyreactivity (PSR sort gate)": "high polyreactivity"}
{"sequence": "QVQLVESGGGLVQAGGSLRLSCAASGYTFIVNAIGWYRQAPGKERQLVAAISRSGSSTRSADSVKWRFTISRDNAKNTVYLLMNRLKPEDTSVYYCAADLYSSEGRYYFWGQGTQVTVSS", "polyreactivity (PSR sort gate)": "high polyreactivity"}
{"sequence": "QVQLVESGGGLVQAGGSLRLSCAASGYTFIVNAMGWYRQAPGKERELVAAISRSGSSTRYADSVKWRFTISRDNAKNTVYLQMNSLKPEDTAVYYCGADLYSSEGRYYYWGQGTQVTVST", "polyreactivity (PSR sort gate)": "high polyreactivity"}
{"sequence": "QVQLVESGGGLVQAGGSLRLSCAASGYTFKLYAMVWSRQAPGKERELVAAIRRGGTTNYADSVNGRFTISRDNSKNTVYFQMNSLKPADTAVYYCAADGWYPGFYYPYTEFDYWGQGTQVTVSS", "polyreactivity (PSR sort gate)": "high polyreactivity"}
{"sequence": "QVQLVESGGGLVQAGGSLRLSCAASGYTFKRYAMGWSRQAPGKERELVAAISSSGSSTYYADSVKGRFTISRDNAKNTVYLQMNSLKPEDTAVYYCAAVYRYGYWGQGTQVTVSS", "polyreactivity (PSR sort gate)": "high polyreactivity"}
{"sequence": "QVQLVESGGGLVQAGGSLRLSCAASGYTFKRYAMGWYRQPPGKERELVAAITSRGGNTYYADSVKGRFTISRDNAKNTVYLQMNSLKPEDTAVYYCAVGGWSAYHLSQMYYWGQGTQVTVSS", "polyreactivity (PSR sort gate)": "high polyreactivity"}
{"sequence": "QVQLVESGGGLVQAGGSLRLSCAASGYTFKTNDMGRYRQAPGKEREFVAAIDSGGNTYYADSVKGRFTISRDNAKNTVYLQMNSVKPEDTAVYYCGAYRDYQYDYWGQGTQVTVSS", "polyreactivity (PSR sort gate)": "low polyreactivity"}
{"sequence": "QVQLVESGGGLVQAGGSLRLSCAASGYTFKTYAMGWYIQAPGKERELVAAISGSGGSTYYADSVMGRFTISRDNAKNTVYLQLKSLKPEDTEVYYCAATNWWGTEYDYWGQGTQVTVSS", "polyreactivity (PSR sort gate)": "high polyreactivity"}
{"sequence": "QVQLVESGGGLVQAGGSLRLSCAASGYTFLGYAMGWYRQAPGKERELVAAIRRSGGRTYYADSVKGRFTISRDNAKNTVYLQMNSLKPEDTAVYYCAKGYVGEYDYWGQGTQVTVSS", "polyreactivity (PSR sort gate)": "high polyreactivity"}
{"sequence": "QVQLVESGGGLVQAGGSLRLSCAASGYTFNKNTMGWYRQAPGKERELVAAISSSGGRTYYADSVKGRFTISRDNAKNTVYLQMNSLKPEDTAVYYCAARGYFKIHEYDYWGQGTQVTVSS", "polyreactivity (PSR sort gate)": "high polyreactivity"}
{"sequence": "QVQLVESGGGLVQAGGSLRLSCAASGYTFPLYALGWYRQAPGKERELVADINIGGASTYYADSVKGRFTISRDNAKNTVYLQMNSLKPEDTAVYYCAKEYYDGFFPTFDYDYWGQVTQVTVSS", "polyreactivity (PSR sort gate)": "low polyreactivity"}
{"sequence": "QVQLVESGGGLVQAGGSLRLSCAASGYTFPLYAMGWYRQAPGKERELVADINIGGASTYYADSVKGRFTISRDNAKNTVYLQKNSLKPEDTAVYYCAKEYYDGYFPTFDSDYWGQGTQVTVSS", "polyreactivity (PSR sort gate)": "low polyreactivity"}
{"sequence": "QVQLVESGGGLVQAGGSLRLSCAASGYTFQPYTMGWYRQAPGKERELVAAISKSGTRTYYADSVKGRFTISRDNEKNTVYLQMNSLKPEDTAVYYCAARYTGFLFDYWGQGTQVTVSS", "polyreactivity (PSR sort gate)": "high polyreactivity"}
{"sequence": "QVQLVESGGGLVQAGGSLRLSCAASGYTFQYNDMGWYRQAPGKERELVAGISIGGSTNYADSVKGRFTISRDNAKNTVYLQMNSLKPEDTAVYYCAARTLWFPGTTSTSVGYKYGYWGQGTQVTVSS", "polyreactivity (PSR sort gate)": "low polyreactivity"}
{"sequence": "QVQLVESGGGLVQAGGSLRLSCAASGYTFRAYVMGWYRQAPGKERELVAGITRRGGTTYYADSVKGRFTISRDNAKNTVYLQMNSLKTEDTAVYYCNAVYRSGSIPYDSWGQGTQVTVSS", "polyreactivity (PSR sort gate)": "high polyreactivity"}
{"sequence": "QVQLVESGGGLVQAGGSLRLSCAASGYTFRFNAMGWYRQAPGKEREFVAAIDFGGAGTYYADSVKGRFTISRDNAKNTVYLQMNSLKPEVTAVYYCNARDGVTTEFDYWGQGTQVTVSS", "polyreactivity (PSR sort gate)": "low polyreactivity"}
{"sequence": "QVQLVESGGGLVQAGGSLRLSCAASGYTFRHYAMGWYRQAPGKERELVAAISRSGGRTYYADSVKGRFTISRDNAKNTVYLHMNSLKPEDTAVYYCAADRVFGSSYLSGFDYWGQGTQGTVSS", "polyreactivity (PSR sort gate)": "low polyreactivity"}
{"sequence": "QVQLVESGGGLVQAGGSLRLSCAASGYTFRSYAMGWYRQAPGKEWEFVASISSSGGSTYYADSVKGRFTISRDNAKNTVYLQMNSLKPEDTAVYYCAASVVSYPYDEYDYWGQGTQVTVSS", "polyreactivity (PSR sort gate)": "low polyreactivity"}
{"sequence": "QVQLVESGGGLVQAGGSLRLSCAASGYTFRTNVMGWYRPAPGKVWELVATINWRGGSTYYADSVKGRFTISRDNAKNTVYLQMNSLKPEDTAVYYCAKSYRYYRTMDYWGQGTQVTVSS", "polyreactivity (PSR sort gate)": "low polyreactivity"}
{"sequence": "QVQLVESGGGLVQAGGSLRLSCAASGYTFRYAMGWYRQAPGKERELVAAISSRGSSTYYADSVKGRFTISRDNAKNTVYLQMNSLKPEDTAVYYCAAKHFVKGDYWGQGTQVTVSS", "polyreactivity (PSR sort gate)": "high polyreactivity"}
{"sequence": "QVQLVESGGGLVQAGGSLRLSCAASGYTFRYYAMGWYRQAPGKERELVAAISSGGSTYYADSVKGRFTISRDNAKNTVYLQMNSLKPEDTAVYYCATGPRIRYDYWGQGTQVTVSS", "polyreactivity (PSR sort gate)": "high polyreactivity"}
{"sequence": "QVQLVESGGGLVQAGGSLRLSCAASGYTFRYYGMGWYRQAPGKERELVADINSNGVRTYYADSVKGRFTISRDNAKNTVYLQMNSLKPEDTAVYYCNKDWGRYRYDYWGQGTQVNVSS", "polyreactivity (PSR sort gate)": "high polyreactivity"}
{"sequence": "QVQLVESGGGLVQAGGSLRLSCAASGYTFRYYVMGWYRQAPGKERELVATISRGGRTNYADSVKGRFTISRDNAKNTVYLQMNSLKPEDTAVYYCNADWSRVPYRYDYWGQGTQVTVSS", "polyreactivity (PSR sort gate)": "high polyreactivity"}
{"sequence": "QVQLVESGGGLVQAGGSLRLSCAASGYTFSANADMGWYRQAPGKESELVAAITGSGGITYYADSVKGRFTISRDNAKNTVYLQMNSLKPEDTAVYYCAAAVVDAAFDYWGQGTQVTVSS", "polyreactivity (PSR sort gate)": "low polyreactivity"}
{"sequence": "QVQLVESGGGLVQAGGSLRLSCAASGYTFSFYAMGWYRQATGKERELVAAISRSGGSTYYADSVKGRFTISRDNAKNTVYLQMNSLKPEDTAVYYCAARWPGAYHEYGYWGQGTQVTVSS", "polyreactivity (PSR sort gate)": "high polyreactivity"}
{"sequence": "QVQLVESGGGLVQAGGSLRLSCAASGYTFSGYAMGWYRQAPGKERELVAAITSSGGTTYYADSVKGRFTISRDNAKNTVYLQMNSLKPEDTAVYYCNAYYSHYGDTEDYYWGQGTQVTVSS", "polyreactivity (PSR sort gate)": "high polyreactivity"}
